Values quoted from earlier work as cited in US20120107229A1, “NOVEL NANO-PROBES FOR MOLECULAR IMAGING AND TARGETED THERAPY OF DISEASES” (priority 2009, published 2012).

Molecular target: T1, CD44 (Homo sapiens, UniProt P16070)
T1 construct: host or cells: melanoma cells (collagen fragment only)
T1 sequence (P16070 21-742, species assumed): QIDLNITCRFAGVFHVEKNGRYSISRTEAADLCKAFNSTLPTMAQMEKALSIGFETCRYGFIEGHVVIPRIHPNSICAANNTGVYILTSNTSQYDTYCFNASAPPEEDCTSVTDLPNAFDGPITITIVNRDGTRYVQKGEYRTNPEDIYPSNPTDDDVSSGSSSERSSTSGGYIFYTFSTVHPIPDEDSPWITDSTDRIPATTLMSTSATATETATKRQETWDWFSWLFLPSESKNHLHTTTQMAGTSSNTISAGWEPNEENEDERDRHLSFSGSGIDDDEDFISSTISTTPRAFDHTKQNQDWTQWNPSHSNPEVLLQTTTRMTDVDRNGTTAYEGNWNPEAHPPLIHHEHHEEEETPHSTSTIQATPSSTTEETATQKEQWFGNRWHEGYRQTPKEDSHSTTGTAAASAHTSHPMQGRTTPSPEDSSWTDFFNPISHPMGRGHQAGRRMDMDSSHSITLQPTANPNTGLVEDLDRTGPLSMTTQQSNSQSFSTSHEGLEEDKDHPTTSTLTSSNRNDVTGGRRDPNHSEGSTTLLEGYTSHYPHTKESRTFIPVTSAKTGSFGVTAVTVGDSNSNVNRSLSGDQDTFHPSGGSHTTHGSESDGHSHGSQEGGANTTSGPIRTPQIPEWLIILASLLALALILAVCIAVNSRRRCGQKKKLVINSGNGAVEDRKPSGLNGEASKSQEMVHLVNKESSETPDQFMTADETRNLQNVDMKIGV

Sequence | binding to CD44 on cells (melanoma cells) | share of the binding of CD44 to intact fibronectin (fibronectin digestion and fractionation studies) [%]
GVKGDKGNPGWPGAP | found to bind with CD44 on melanoma cells | –
KNNQKSEPLIGRKKT | – | 65.5
